# Source: US20030166587A1 (SIGNAL PHARMACEUTICALS, published 2003)
# Non-standard residues stand in square brackets, D forms with d. No end group written: not given here. pS = N[C@@H](COP(=O)(O)O)C(=O)O
# Target: specific IκB E3 ubiquitin ligase activity of HeLa extract
# Test: cell-based or functional assay
row,Binder,IC50 of inhibition of pIκBα ubiquitination (in vitro ubiquitination assay in HeLa extract) [µM]
1,"CKKERLLDDRHD[pS]GLDSMKDEE [ppS32, singly phosphorylated IκBα peptide]",400
2,"CDDRHD[pS]GLD[pS]MKDEE [pp15, doubly phosphorylated IκBα peptide]",5
3,"CDDRHD[pS]GLD[pS]M [pp11, doubly phosphorylated IκBα peptide]",5
4,"CKKERLLDDRHDSGLD[pS]MKDEE [ppS36, singly phosphorylated IκBα peptide]",400
5,"CD[pS]GLD[pS]M [pp7, doubly phosphorylated IκBα peptide (minimal size peptide tested)]",10
